Drawing on patent EP2172481A1, this text covers Kd for 1 molecule.

In the experiment the target is oocyst extract. Description: antigen binding analysis on oocyst extract; method not stated.

B1: Di-kappa-body (protein)
chain: QVQLQQSGPELVKPGASVKMSCKASGYTFTVYIIHWLKQKPGQGLEWIGYINPYNDGTKYNEKFRGKATLTSDKSSSTAYMELSSLTSEDSAVYYCARFYYGSSSVFDYWGQGTTLTVSSGGSGGSDVVMTQTQKFMSTSVGDRVSVTCKASQNVGTNVAWYQQKPGQSPKALIYSASYRYSGVPDRFTGSGSGTDFTLTISNVQSEDLAEYFCQQYNSYPLTFGAGTKLELKRTVAAPSVFIFPPSDEQLKSGTASVVCLLNNFYPREAKVQWKVDNALQSGNSQESVTEQDSKDSTYSLSSTLTLSKADYEKHKVYACEVTHQGLSSPVTKSFNRGEC
With B1, the Kd came to 0.55 nM.
